Target: T1, CRB1-FLAG p.C480R (human, UniProt P82279 26-1406, p.C480R)
T1 construct: Crumbs homolog 1, canonical form, human, cDNA NM_202153 as printed, with a patient missense mutation; Made by site-directed mutagenesis of m1; also called CRB1 p.C480R; CRB1-FLAG MT; source: HEK293T, transfected, in lysate; not shown: Strep-Strep-FLAG, N-terminal, kept
T1 sequence (looked up): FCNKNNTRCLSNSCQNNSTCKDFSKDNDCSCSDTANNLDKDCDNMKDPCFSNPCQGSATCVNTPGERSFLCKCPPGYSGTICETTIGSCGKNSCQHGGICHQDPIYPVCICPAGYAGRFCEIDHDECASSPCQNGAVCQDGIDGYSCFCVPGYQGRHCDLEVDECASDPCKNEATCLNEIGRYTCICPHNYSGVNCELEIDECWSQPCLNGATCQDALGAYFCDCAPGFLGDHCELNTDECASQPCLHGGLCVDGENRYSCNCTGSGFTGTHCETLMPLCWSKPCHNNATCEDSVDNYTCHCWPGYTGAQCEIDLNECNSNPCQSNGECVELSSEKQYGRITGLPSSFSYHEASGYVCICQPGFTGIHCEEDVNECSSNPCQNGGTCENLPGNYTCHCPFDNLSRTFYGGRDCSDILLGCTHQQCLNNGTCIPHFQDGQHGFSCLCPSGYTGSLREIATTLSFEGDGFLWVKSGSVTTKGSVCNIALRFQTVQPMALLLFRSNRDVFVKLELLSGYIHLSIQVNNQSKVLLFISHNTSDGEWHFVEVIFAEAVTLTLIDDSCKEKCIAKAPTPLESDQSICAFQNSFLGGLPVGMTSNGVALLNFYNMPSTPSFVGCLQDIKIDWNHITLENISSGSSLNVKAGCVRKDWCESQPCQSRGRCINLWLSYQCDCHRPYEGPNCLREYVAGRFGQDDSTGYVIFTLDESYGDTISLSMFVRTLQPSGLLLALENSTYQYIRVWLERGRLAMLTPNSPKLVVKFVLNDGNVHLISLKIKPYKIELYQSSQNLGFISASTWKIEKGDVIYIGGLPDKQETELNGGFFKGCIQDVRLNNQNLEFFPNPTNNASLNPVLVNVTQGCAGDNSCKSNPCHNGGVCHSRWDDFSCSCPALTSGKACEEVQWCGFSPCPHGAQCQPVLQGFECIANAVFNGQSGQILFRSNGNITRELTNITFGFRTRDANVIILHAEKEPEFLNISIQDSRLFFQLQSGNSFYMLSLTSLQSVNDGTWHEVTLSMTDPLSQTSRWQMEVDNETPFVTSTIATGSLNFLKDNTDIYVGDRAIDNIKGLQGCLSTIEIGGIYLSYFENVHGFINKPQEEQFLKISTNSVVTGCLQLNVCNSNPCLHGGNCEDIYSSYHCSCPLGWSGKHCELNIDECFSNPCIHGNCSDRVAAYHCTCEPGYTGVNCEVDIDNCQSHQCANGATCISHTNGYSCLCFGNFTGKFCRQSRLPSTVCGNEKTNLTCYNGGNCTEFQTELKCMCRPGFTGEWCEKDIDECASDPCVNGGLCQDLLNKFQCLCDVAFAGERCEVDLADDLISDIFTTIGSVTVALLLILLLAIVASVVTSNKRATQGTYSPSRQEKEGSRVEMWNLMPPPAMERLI
Experiment: co-IP; HEK293T cells co-transfected pairwise with a FLAG and an HA construct, 48 h; lysis in TBS (30 mM Tris-HCl pH 7.4, 150 mM NaCl) with 0.5% Nonidet P40; FLAG-IP on ANTI-FLAG M2 Affinity Gel 60-90 min at 4°C, elution with FLAG peptide; Western blot with HA and FLAG antibodies; for mutants HA/FLAG signal in eluates relative to WT, three biological replicates
Conditions: partners not purified

B1: Human canonical CRB2 (Crumbs homolog 2) (natural protein)
chain: not shown
notes: Crumbs homolog 2, human, cDNA NM_173689; Stood as bait (FLAG copy) and as prey (HA copy) in the pairwise co-IP matrix; each copy carries only one of the two tags; The FLAG copy was the bait of the mass spectrometry pull-downs; also called CRB2-FLAG; CRB2-HA; source: HEK293T, transfected, in lysate (co-IP); HEK293T, transfected, FLAG-IP on beads, washed and purified with 0.01% SDS (retina …)
- percent of the interaction capacity relative to CRB1 WT: 96%

From paper PMC10992996, “Human CRB1 and CRB2 form homo- and heteromeric protein complexes in the retina” (Life Science Alliance, 2024)
